± gives the standard deviation of the averaged measurements.
These sequences were tested on ATP (assay: switch fluorescence ratio, 500 uM ATP over buffer (Cy3 cluster intensity, sum of 5 cycles each) (fold (ratio)); higher = stronger signal-on switching upon ATP binding; sequences stand for … in TCGTCGGCAGCGTCAGATGTGTATAAGAGACAGTTTTTTTTTTTTTTTTTTTTTTTTT…TC). Conditions: aptamer strand: ATP DNA aptamer (quencher-CACCTGGGGGAGTATTGCGGAGGAAGG + anchor), 100 nM annealed; ATP concentration: 500 uM.
How it was run: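 After annealing to 100 nM quencher-labelled ATP aptamer, Cy3-labelled switching-strand clusters on a modified Illumina MiSeq flow-cell were imaged in selection buffer. A second image followed after 15 min with 500 uM ATP at 22 °C, and five such buffer/ATP cycles were done, each separated by NaOH stripping and re-annealing. The fluorescence ratio, averaged per switch-domain sequence, is summed target-cycle over summed buffer-cycle Cy3 intensity per cluster, with clusters outside 100-1000 RFU excluded.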
Sequence TCCGGGGTGT has a switch fluorescence ratio of 1.26 ± 0.44. Sequence GGTGGTTGGC has a switch fluorescence ratio of 1.007 ± 0.0075. Sequence AATTTGCGGC has a switch fluorescence ratio of 0.982 ± 0.029. ATATAGTCTG was tested, and the switch fluorescence ratio was 0.9893 ± 0.0046. GTTTATAGGG gave a switch fluorescence ratio of 0.985 ± 0.025. With TTTTGTTACT the switch fluorescence ratio was 1.01 ± 0.026. Work on TTGGAATGT yielded a switch fluorescence ratio of 1.029 ± 0.0083. TTTTAGAGGT showed a switch fluorescence ratio of 0.96 ± 0.033. TTTCGACGTT gave a switch fluorescence ratio of 0.99 ± 0.011. With CAACATTTCA the switch fluorescence ratio was 1.01 ± 0.022. With GATGTAAGAA the switch fluorescence ratio was 0.993 ± 0.028. GCGGGGGGAG was tested, and the switch fluorescence ratio was 1.02 ± 0.043. TATTTACAGG gave a switch fluorescence ratio of 1.033 ± 0.0084. Sequence CATTATATGT has a switch fluorescence ratio of 1.01 ± 0.046. CAGGTAAGGC gave a switch fluorescence ratio of 1.04 ± 0.033. GTGGGGTGTG showed a switch fluorescence ratio of 1.01 ± 0.021. ACGAGGATTG gave a switch fluorescence ratio of 1.042 ± 0.0021. CTAGTAGATC was tested, and the switch fluorescence ratio was 1.04 ± 0.014. Sequence TAAGTAGGGG has a switch fluorescence ratio of 0.981 ± 0.023. Work on CGATAGGTAC yielded a switch fluorescence ratio of 1.22 ± 0.027. For GCGTTGTGGG, the switch fluorescence ratio was 1.05 ± 0.024. In the case of GAAGTTTGTT, the switch fluorescence ratio is reported as 0.98 ± 0.026. TGCCCGCCCT gave a switch fluorescence ratio of 1.08 ± 0.065. For ATTTTGGGTT, the switch fluorescence ratio was 1 ± 0.022. With AGAGGTGTGG the switch fluorescence ratio was 0.991 ± 0.05. With GAGAGATTAT the switch fluorescence ratio was 0.9787 ± 0.002. CGGTCTATAG was tested, and the switch fluorescence ratio was 1.02 ± 0.053. In the case of ACGCAATGAT, the switch fluorescence ratio is reported as 5.18 ± 0.069. CTTAGTCGGC was tested, and the switch fluorescence ratio was 0.967 ± 0.015. Sequence CTGGTGAGGG has a switch fluorescence ratio of 0.9931 ± 0.0091. AAAGATGGGA showed a switch fluorescence ratio of 1.003 ± 0.0081. In the case of ACAGTTGTTA, the switch fluorescence ratio is reported as 0.98717 ± 0.00059. Work on TATGTACGGG yielded a switch fluorescence ratio of 1.0612 ± 0.00037. TAGGCGGTGT was tested, and the switch fluorescence ratio was 1.01 ± 0.012. For GGGGCCGATA, the switch fluorescence ratio was 1.04 ± 0.079. With CAAGTAGGGG the switch fluorescence ratio was 0.9765 ± 0.0015. AAGATTTGAG was tested, and the switch fluorescence ratio was 0.992 ± 0.01. Sequence TTCGAAATT has a switch fluorescence ratio of 1.02 ± 0.035. GATAAAAGTT showed a switch fluorescence ratio of 1.02 ± 0.066. With TTATGAGCAA the switch fluorescence ratio was 1.8 ± 0.096. AGTCGCGCGC gave a switch fluorescence ratio of 0.989 ± 0.011. TTCATTGGTT showed a switch fluorescence ratio of 0.998 ± 0.038. ATCTTGTTGG was tested, and the switch fluorescence ratio was 1.13 ± 0.27. For ATGCGAATAT, the switch fluorescence ratio was 0.989 ± 0.015. ATTGGTTTCG gave a switch fluorescence ratio of 0.9835 ± 0.0051. Sequence TCGGATTTGT has a switch fluorescence ratio of 1.01 ± 0.041. Sequence GCTTAATGTG has a switch fluorescence ratio of 0.968 ± 0.027. In the case of TTTTTGGATC, the switch fluorescence ratio is reported as 1 ± 0.025. ACATTCGCGT was tested, and the switch fluorescence ratio was 1.05 ± 0.018. Sequence AGATTGTTTA has a switch fluorescence ratio of 0.981 ± 0.019. Work on CCGTTCAGAA yielded a switch fluorescence ratio of 1.08 ± 0.019. For AGCTGGGCTC, the switch fluorescence ratio was 1.07 ± 0.016. With TCAATTTGGC the switch fluorescence ratio was 1.02 ± 0.039. GTTATTTGGG showed a switch fluorescence ratio of 0.979 ± 0.035. Sequence AAGTCGCATA has a switch fluorescence ratio of 1.04 ± 0.017. Work on GCAAATGGTT yielded a switch fluorescence ratio of 1.01 ± 0.053. Sequence CGTGATTTGG has a switch fluorescence ratio of 1.006 ± 0.0065. GAACTAAGCT was tested, and the switch fluorescence ratio was 1.01 ± 0.028. Sequence GCATGCTGTC has a switch fluorescence ratio of 0.983 ± 0.019. Sequence AAAGGGGGAC has a switch fluorescence ratio of 1.04 ± 0.089. GGTAGTCTTT showed a switch fluorescence ratio of 0.996 ± 0.02. Work on TCCAATTGGA yielded a switch fluorescence ratio of 0.9855 ± 0.0021. Work on GTACCATCTG yielded a switch fluorescence ratio of 0.976 ± 0.02. TTCTGCAGGT gave a switch fluorescence ratio of 0.995 ± 0.011. Sequence TGATGGCCCG has a switch fluorescence ratio of 1.03 ± 0.092. Sequence AAGGGTTGCG has a switch fluorescence ratio of 0.985 ± 0.024. TAATTGGTGG was tested, and the switch fluorescence ratio was 1.01 ± 0.029. Sequence GGCGCTAGCG has a switch fluorescence ratio of 0.993 ± 0.068. CGCGGGAAGG gave a switch fluorescence ratio of 1.02 ± 0.036. In the case of GCTTTATGTA, the switch fluorescence ratio is reported as 0.975 ± 0.025. With GGGGGGACAG the switch fluorescence ratio was 1 ± 0.037. With ATTTGTAAAG the switch fluorescence ratio was 1 ± 0.034. For ATTTGGTAAA, the switch fluorescence ratio was 0.9859 ± 0.009. Sequence TTTCCAGGG has a switch fluorescence ratio of 1.17 ± 0.031. In the case of GAGGCATTGT, the switch fluorescence ratio is reported as 1.05 ± 0.017. In the case of TGGAGTGTGG, the switch fluorescence ratio is reported as 0.912 ± 0.087. ATTAAGAGGT was tested, and the switch fluorescence ratio was 1.034 ± 0.0075. CAAATTGGAA showed a switch fluorescence ratio of 0.961 ± 0.043. GGCCCGTCGG showed a switch fluorescence ratio of 1.03 ± 0.0047. TTTCAGAAAT gave a switch fluorescence ratio of 1.91 ± 1.6. GGGTCATGGG gave a switch fluorescence ratio of 0.989 ± 0.033. Sequence TATCGGGGTG has a switch fluorescence ratio of 0.996 ± 0.053. Sequence AGAAATTGGA has a switch fluorescence ratio of 1.02 ± 0.044. CTATAGTAGG was tested, and the switch fluorescence ratio was 0.9849 ± 0.0029. With GACTGGTAAT the switch fluorescence ratio was 1.047 ± 0.0072. With CGATTGGGTA the switch fluorescence ratio was 0.968 ± 0.038. CCTATTCCGG showed a switch fluorescence ratio of 1.05 ± 0.03. GGATGTGGGA showed a switch fluorescence ratio of 0.981 ± 0.017. Work on CGAAAACTTT yielded a switch fluorescence ratio of 1.07 ± 0.064. For GTGATATAAG, the switch fluorescence ratio was 0.986 ± 0.031. In the case of ATGGTTAAAT, the switch fluorescence ratio is reported as 0.976 ± 0.033. Sequence AATACAGGCT has a switch fluorescence ratio of 0.999 ± 0.024. GTGGGTCGTA was tested, and the switch fluorescence ratio was 0.985 ± 0.046. For TTTTTTCAAT, the switch fluorescence ratio was 1.03 ± 0.029. TGCTGGGGTA was tested, and the switch fluorescence ratio was 0.99 ± 0.024. With CGGTTTGAGT the switch fluorescence ratio was 0.983 ± 0.019. With GAAGGAAAGA the switch fluorescence ratio was 1.02 ± 0.037. Sequence TGGTAACGGT has a switch fluorescence ratio of 1.09 ± 0.12. GATTTTTTTG gave a switch fluorescence ratio of 0.985 ± 0.037. Work on GACGAATCCA yielded a switch fluorescence ratio of 1.03 ± 0.046.

Source: the supplement of paper PMC10126150
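Further: ATP exposure 15 min at 22 °C before imaging.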
